For assay [1], the target named is T1, purified human CD117 ectodomain (R&D Systems #332-SR) (human, UniProt P10721 26-524).
T1 construct: extracellular domain; Bought protein; also called c-kit; purified recombinant human CD117 ectodomain
Put plainly: BLI, purified IgG on sensor, soluble ectodomain; apparent monovalent.

In assay [2] the target is T2, purified rhesus CD117 ectodomain (rhesus, UniProt F6V858 26-524).
T2 construct: extracellular domain; also called rhesus antigen
Put plainly: BLI, purified IgG on sensor, soluble rhesus ectodomain; apparent monovalent. A general note: In BLI a coated tip is dipped into the sample, and binding shifts an interference pattern.

Assay [3] concerns the target CD117 on Kasumi-1 cells and primary human CD34+ bone marrow cells (human, UniProt P10721 26-976). Put plainly: cell-based or functional assay.

Sequence of CD117 on Kasumi-1 cells and primary human CD34+ bone marrow cells (P10721 26-976): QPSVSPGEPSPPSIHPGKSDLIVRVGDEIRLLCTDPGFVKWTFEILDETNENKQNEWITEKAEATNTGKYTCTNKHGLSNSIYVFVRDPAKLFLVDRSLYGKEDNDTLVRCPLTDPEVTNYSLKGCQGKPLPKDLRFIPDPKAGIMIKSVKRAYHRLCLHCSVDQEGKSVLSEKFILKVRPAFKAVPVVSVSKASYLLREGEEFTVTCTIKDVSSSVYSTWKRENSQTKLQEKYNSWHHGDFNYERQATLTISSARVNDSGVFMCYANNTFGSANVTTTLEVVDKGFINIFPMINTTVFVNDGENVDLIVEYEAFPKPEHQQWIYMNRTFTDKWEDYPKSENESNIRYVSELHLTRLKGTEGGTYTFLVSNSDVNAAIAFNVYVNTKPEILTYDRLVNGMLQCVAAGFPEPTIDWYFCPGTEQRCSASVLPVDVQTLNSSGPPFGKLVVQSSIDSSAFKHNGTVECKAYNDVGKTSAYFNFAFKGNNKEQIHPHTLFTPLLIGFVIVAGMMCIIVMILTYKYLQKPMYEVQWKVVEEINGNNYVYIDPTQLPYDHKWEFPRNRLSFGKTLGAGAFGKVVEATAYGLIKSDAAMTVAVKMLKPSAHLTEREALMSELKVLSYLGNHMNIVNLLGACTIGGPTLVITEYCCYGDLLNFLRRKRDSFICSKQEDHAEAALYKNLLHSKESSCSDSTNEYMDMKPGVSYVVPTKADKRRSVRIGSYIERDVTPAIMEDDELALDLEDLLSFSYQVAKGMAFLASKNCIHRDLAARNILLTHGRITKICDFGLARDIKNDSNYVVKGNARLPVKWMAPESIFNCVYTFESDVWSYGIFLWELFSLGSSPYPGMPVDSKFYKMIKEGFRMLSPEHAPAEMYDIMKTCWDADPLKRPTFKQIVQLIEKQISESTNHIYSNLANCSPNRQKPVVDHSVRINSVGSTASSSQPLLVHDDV
T1 sequence (P10721 26-524): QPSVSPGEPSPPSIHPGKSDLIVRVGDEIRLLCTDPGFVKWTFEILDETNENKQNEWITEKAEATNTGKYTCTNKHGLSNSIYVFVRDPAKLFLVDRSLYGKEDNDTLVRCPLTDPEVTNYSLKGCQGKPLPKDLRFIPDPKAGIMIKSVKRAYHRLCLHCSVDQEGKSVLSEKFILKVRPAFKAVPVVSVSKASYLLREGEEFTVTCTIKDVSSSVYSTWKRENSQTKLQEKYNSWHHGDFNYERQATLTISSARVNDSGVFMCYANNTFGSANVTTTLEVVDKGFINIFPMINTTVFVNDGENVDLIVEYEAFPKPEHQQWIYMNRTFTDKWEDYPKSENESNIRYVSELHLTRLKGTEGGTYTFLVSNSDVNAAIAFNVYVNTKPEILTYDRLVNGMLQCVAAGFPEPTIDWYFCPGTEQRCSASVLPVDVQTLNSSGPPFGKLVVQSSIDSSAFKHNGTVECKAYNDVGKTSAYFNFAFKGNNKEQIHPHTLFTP

B1: HC-22/LC-22 (Ab22) (antibody, IgG1, V domains shown)
VH: QVQLKESGPGLVQPSQTLSLTCTVSGFSLTSYLVHWVRQPPGKTLEWVGLMWNDGDTSYNSALKSRLSISRDTSKSQVFLKMHSLQAEDTATYYCARESNLGFTYWGHGTLVTVSS
VL: DIQMTQSPASLSASLEEIVTITCKASQGIDDDLSWYQQKPGKSPQLLIYDVTRLADGVPSRFSGSRSGTQYSLKISRPQVADSGIYYCLQSYSTPYTFGAGTKLELK
notes: From rat immunization/hybridoma; purified IgG in BLI; also called 022
Broadly, the koff is the first-order rate constant of dissociation. Broadly, the kon is the rate constant with which the complex forms. With B1, in assay [1], the Kd came to 0.0964 nM, the koff was 0.000221 s⁻¹ and the kon is 2.29e+06 M⁻¹ s⁻¹. Further, in assay [2], the Kd worked out at 0.0891 nM, the koff came out at 0.000155 s⁻¹ and the kon is 1.74e+06 M⁻¹ s⁻¹.

B2: HC-23/LC-23 (Ab23) (antibody, IgG1, V domains shown)
VH: EVQLQQYGAELGKPGTSVRLSCKVSGYNIRNTYIHWVHQRPGEGLEWIGRIDPTNGNTISAEKFKSKATLTADTSSNTAYMQFSQLKSDDTAIYFCAMNYEGYADYWGQGVMVTVSS
VL: DIQMTQSPSFLSASVGDRLTINCKASQNINKYLNWYQQKLGEAPKRLIFKTNSLQTGIPSRFSGSGSGTDYTLTISSLQPEDVATYFCFQYNIGFTFGAGTKLELK
notes: From rat immunization/hybridoma; purified IgG in BLI; also called 023
With B2, in assay [1], the Kd was 1.49 nM, the koff was determined as 0.000713 s⁻¹ and the kon was 478000 M⁻¹ s⁻¹. Besides, in assay [2], the Kd was 7.62 nM, the koff is 0.00214 s⁻¹ and the on-rate constant (kon) came out at 280000 M⁻¹ s⁻¹.

B3: HC-20/LC-20 (Ab20) (antibody, IgG1, V domains shown)
VH: EVQLQQYGAELGKPGTSVRLSCKLSGYKIRNTYIHWVNQRPGKGLEWIGRIDPANGNTIYAEKFKSKVTLTADTSSNTAYMQLSQLKSDDTALYFCAMNYEGYEDYWGQGVMVTVSS
VL: DIQMTQSPSFLSASVGDSVTINCKASQNINKYLNWYQQKLGEAPKRLIHKTDSLQTGIPSRFSGSGSGTDYTLTISSLQPEDVATYFCFQYKSGFMFGAGTKLELK
notes: From rat immunization/hybridoma; purified IgG in BLI; also called 020
For B3, in assay [1], the Kd worked out at 0.254 nM, the koff came to 0.000202 s⁻¹ and the kon turned out to be 794000 M⁻¹ s⁻¹. In assay [2], the Kd turned out to be 1.39 nM, the koff was found to be 0.000585 s⁻¹ and the kon came out at 421000 M⁻¹ s⁻¹.

B4: HC-28/LC-28 (Ab28) (antibody, IgG1, V domains shown)
VH: EVQLQQYGAELGKPGTSVRLSCKVSGYKIRNTYIHWVNQRPGKGLEWIGRIDPANGNTIYAEKFKSKVTLTADTSSNTAYMQLSQLKSDDTALYFCAMNYEGYEDYWGQGVMVTVSS
VL: DIQMTQSPSFLSASVGDSVTINCKASQNINKYLNWYQQKLGEAPKRLIHKTNSLQPGFPSRFSGSGSGTDYTLTISSLQPEDVAAYFCFQYNSGFTFGAGTKLELK
notes: From rat immunization/hybridoma; purified IgG in BLI; also called 028
As to B4, in assay [1], the Kd turned out to be 0.403 nM, the koff was found to be 0.000368 s⁻¹ and the kon is 914000 M⁻¹ s⁻¹. Moreover, in assay [2], the Kd was 3.6 nM, the koff stood at 0.00187 s⁻¹ and the on-rate (kon) was found to be 521000 M⁻¹ s⁻¹.

B5: HC-24/LC-24 (Ab24) (antibody, IgG1, V domains shown)
VH: EVQLVESGGGLVQSGRSLKLSCAASGFTVSDYYMAWVRQAPTKGLEWVATINYDGSTTYHRDSVKGRFTISRDNAKSTLYLQMDSLRSEDTATYYCARHGDYGYHYGAYYFDYWGQGVMVTVSS
VL: DIVLTQSPALAVSLGQRATISCRASQTVSLSGYNLIHWYQQRTGQQPKLLIYRASNLAPGIPARFSGSGSGTDFTLTISPVQSDDIATYYCQQSRESWTFGGGTNLEMK
notes: From rat immunization/hybridoma; purified IgG in BLI; also called 024
Consider B5, for which, in assay [1], the Kd was 0.986 nM, the koff is 0.00011 s⁻¹ and the on-rate (kon) was 111000 M⁻¹ s⁻¹. In assay [2], the Kd worked out at 19.6 nM, the koff turned out to be 0.000777 s⁻¹ and the kon was 39700 M⁻¹ s⁻¹.

B6: HC-77/LC-77 anti-CD117-ADC (conjugated to an amatoxin) (antibody, V domains shown)
VH: QVQLVQSGAAVKKPGESLKISCKGSGYRFTTYWIGWVRQMPGKGLEWMGIIYPGDSDTRYSPSFQGQVTISAGKSISTAYLQWSSLKASDTAMYYCARHGRGYNGYEGAFDIWGQGTMVTVSS
VL: DIQLTQSPSSLSASVGDRVTITCRASQGVISALAWYQQKPGKAPKLLIYDASILESGVPSRFSGSGSGTDFTLTISSLQPEDFATYYCQQFNSYPLTFGGGTKVEIK
modifications: antibody conjugated to an amatoxin; site not stated
Regarding B6, in assay [3], the “% efficacy, killing of primary human CD34+CD90+ cells” value (from here on “% efficacy, killing”) was 54.4% and the “IC50, killing of primary human CD34+CD90+ cells (5 days, flow cytometry counts)” value (“IC50, killing” below) was determined as 6.94 pM.

B7: HC-248/LC-248 anti-CD117-ADC (conjugated to an amatoxin) (antibody, V domains shown)
VH: EVQLVQSGAEVKKPGESLKISCKGSGYRFTTSWIGWVRQMPGKGLEWMGIIYPGDSDTRYSPSFQGQVTISADKSISTAYLQWSSLKASDTAMYYCARHGLGYNGYEGAFDIWGQGTLVTVSS
VL: DIQMTQSPSSLSASVGDRVTITCRASQGIGSALAWYQQKPGKAPKLLIYDASTLESGVPSRFSGSGSGTDFTLTISSLQPEDFATYYCQQLNGYPLTFGQGTRLEIK
modifications: antibody conjugated to an amatoxin; site not stated
Consider B7, for which, in assay [3], the “% efficacy, killing” value is 47.8% and the “IC50, killing” value was 6.46 pM.

B8: HC-247/LC-247 anti-CD117-ADC (conjugated to an amatoxin) (antibody, V domains shown)
VH: QVQLVQSGAAVKKPGESLKISCKGSGYRFTTYWIGWVRQMPGKGLEWMGIIYPGDSDTRYSPSFQGQVTISAGKSISTAYLQWSSLKASDTAMYYCARHGRGYNGYEGAFDIWGQGTMVTVSS
VL: DIQMTQSPSSLSASVGDRVTITCRASRGISDYLAWYQQKPGKAPKLLIYDASNLETGVPSRFSGSGSGTDFTLTISSLQPEDFATYYCQQANSFPITFGQGTRLEIK
modifications: antibody conjugated to an amatoxin; site not stated
For B8, in assay [3], the “% efficacy, killing” value is 55.4% and the “IC50, killing” value is 8.37 pM.

B9: HC-246/LC-246 anti-CD117-ADC (conjugated to an amatoxin) (antibody, V domains shown)
VH: QVQLVQSGAAVKKPGESLKISCKGSGYRFTTYWIGWVRQMPGKGLEWMGIIYPGDSDTRYSPSFQGQVTISAGKSISTAYLQWSSLKASDTAMYYCARHGRGYNGYEGAFDIWGQGTMVTVSS
VL: DIQMTQSPSSLSASVGDRVTITCRASQGIGSALAWYQQKPGKAPKLLIYDASTLESGVPSRFSGSGSGTDFTLTISSLQPEDFATYYCQQFNGYPLTFGQGTRLEIK
modifications: antibody conjugated to an amatoxin; site not stated
Consider B9, for which, in assay [3], the “% efficacy, killing” value came out at 67.8% and the “IC50, killing” value came out at 4.53 pM.

B10: HC-245/LC-245 anti-CD117-ADC (conjugated to an amatoxin) (antibody, V domains shown)
VH: EVQLVQSGAEVKKPGESLKISCKGSGYRFTTSWIGWVRQMPGKGLEWMGIIYPGDSDTRYSPSFQGQVTISADKSISTAYLQWSSLKASDTAMYYCARHGLGYNGYEGAFDIWGQGTLVTVSS
VL: DIQMTQSPSSLSASVGDRVTITCRASQGIGSALAWYQQKPGKAPKLLIYDASTLESGVPSRFSGSGSGTDFTLTISSLQPEDFATYYCQQFNGYPLTFGQGTRLEIK
modifications: antibody conjugated to an amatoxin; site not stated
For B10, in assay [3], the “% efficacy, killing” value came out at 76.4% and the “IC50, killing” value came out at 5.78 pM.

B11: HC-81/LC-81 anti-CD117-ADC (conjugated to an amatoxin) (antibody, V domains shown)
VH: QVQLVQSGAAVKKPGESLKISCKGSGYRFTTYWIGWVRQMPGKGLEWMGIIYPGDSDTRYSPSFQGQVTISAGKSISTAYLQWSSLKASDTAMYYCARHGRGYNGYEGAFDIWGQGTMVTVSS
VL: DIQLTQSPSSLSASVGDRVTITCRASQGVISALAWYQQKPGKAPKLLIYDASTLESGVPSRFSGSGSGTDFTLTISSLQPEDFATYYCQQFNSYPLTFGGGTKVEIK
modifications: antibody conjugated to an amatoxin; site not stated
Take B11: in assay [3], the “% efficacy, killing” value worked out at 68.7% and the “IC50, killing” value was determined as 3.77 pM.

B12: HC-79/LC-79 anti-CD117-ADC (conjugated to an amatoxin) (antibody, V domains shown)
VH: QVQLVQSGAAVKKPGESLKISCKGSGYRFTTYWIGWVRQMPGKGLEWMGIIYPGDSDTRYSPSFQGQVTISAGKSISTAYLQWSSLKASDTAMYYCARHGRGYNGYEGAFDIWGQGTMVTVSS
VL: DIQLTQSPSSLSASVGDRVTITCRASQGVGSALAWYQQKPGKAPKLLIYDASILESGVPSRFSGSGSGTDFTLTISSLQPEDFATYYCQQFNSYPLTFGGGTKVEIK
modifications: antibody conjugated to an amatoxin; site not stated
Turning to B12, in assay [3], the “% efficacy, killing” value came out at 63.4% and the “IC50, killing” value is 7.09 pM.

B13: HC-27/LC-27 (Ab27) (antibody, IgG1, V domains shown)
VH: EVQLVESGGGLVQPGRSMKLSCKASGFTFSNYDMAWVRQAPTRGLEWVASISYDGITAYYRDSVKGRFTISRENAKSTLYLQLVSLRSEDTATYYCTTEGGYVYSGPHYFDYWGQGVMVTVSS
VL: DIQMTQSPSSMSVSLGDTVTITCRASQDVGIFVNWFQQKPGRSPRRMIYRATNLADGVPSRFSGSRSGSDYSLTISSLESEDVADYHCLQYDEFPRTFGGGTKLELK
notes: From rat immunization/hybridoma; purified IgG in BLI; also called 027
Consider B13, for which, in assay [1], the Kd came out at 0.53 nM, the koff came out at 0.000378 s⁻¹ and the kon turned out to be 712000 M⁻¹ s⁻¹. Also, in assay [2], the Kd came to 0.89 nM, the koff was found to be 0.000275 s⁻¹ and the kon was found to be 309000 M⁻¹ s⁻¹.

B14: HC-19/LC-19 (Ab19) (antibody, IgG1, V domains shown)
VH: EVQLQESGPGLVKPSQSLSLTCSVTGYSISSNYRWNWIRKFPGNKVEWMGYINSAGSTNYNPSLKSRISMTRDTSKNQFFLQVNSVTTEDTATYYCARSLRGYITDYSGFFDYWGQGVMVTVSS
VL: DIRMTQSPASLSASLGETVNIECLASEDIFSDLAWYQQKPGKSPQLLIYNANSLQNGVPSRFSGSGSGTRYSLKINSLQSEDVATYFCQQYKNYPLTFGSGTKLEIK
notes: From rat immunization/hybridoma; purified IgG in BLI; also called 019
Turning to B14, in assay [1], the Kd was found to be 2.35 nM, the koff turned out to be 0.000481 s⁻¹ and the kon turned out to be 205000 M⁻¹ s⁻¹. In addition, in assay [2], the Kd was 2.34 nM, the koff was determined as 0.000415 s⁻¹ and the kon stood at 177000 M⁻¹ s⁻¹.

B15: HC-25/LC-25 (Ab25) (antibody, IgG1, V domains shown)
VH: QIQLVQSGPELKKPGESVKISCKASGYTFTDYAIHWVKQAPGQGLRWMAWINTETGKPTYADDFKGRFVFSLEASASTAHLQISNLKNEDTATFFCAGGSHWFAYWGQGTLVTVSS
VL: SYELIQPPSASVTLENTVSITCSGDELSNKYAHWYQQKPDKTILEVIYNDSERPSGISDRFSGSSSGTTAILTIRDAQAEDEADYYCLSTFSDDDLPIFGGGTKLTVL
notes: From rat immunization/hybridoma; purified IgG in BLI; also called 025
In the case of B15, in assay [1], the Kd turned out to be 0.52 nM, the koff was 0.00153 s⁻¹ and the kon amounted to 2.94e+06 M⁻¹ s⁻¹. In assay [2], the Kd worked out at 0.81 nM, the koff worked out at 0.00195 s⁻¹ and the kon came to 2.41e+06 M⁻¹ s⁻¹.

B16: HC-21/LC-21 (Ab21) (antibody, IgG1, V domains shown)
VH: QIQLVQSGPELKKPGESVKISCKASGYTFTDYAVYWVIQAPGKGLKWMGWINTYTGKPTYADDFKGRFVFSLETSASTANLQISNLKNEDTATYFCARGAGMTKDYVMDAWGRGVLVTVS
VL: SYELIQPPSASVTLGNTVSLTCVGDELSKRYAQWYQQKPDKTIVSVIYKDSERPSDISDRFSGSSSGTTATLTIHGTLAEDEADYYCLSTYSDDNLPVFGGGTKLTVL
notes: From rat immunization/hybridoma; purified IgG in BLI; also called 021
As to B16, in assay [1], the Kd was 0.715 nM, the koff was 0.000437 s⁻¹ and the kon worked out at 612000 M⁻¹ s⁻¹. Moreover, in assay [2], the Kd was 0.869 nM, the koff was 0.000357 s⁻¹ and the kon is 410000 M⁻¹ s⁻¹.
